# Results as given in publication PMC6533540, “DprA Is Essential for Natural Competence in Riemerella anatipestifer and Has a Conserved Evolutionary Mechanism”.
# Target: T1, DprA R123E (Riemerella anatipestifer ATCC11845, UniProt E4TBU2 1-367, R123E)
# T1 sequence: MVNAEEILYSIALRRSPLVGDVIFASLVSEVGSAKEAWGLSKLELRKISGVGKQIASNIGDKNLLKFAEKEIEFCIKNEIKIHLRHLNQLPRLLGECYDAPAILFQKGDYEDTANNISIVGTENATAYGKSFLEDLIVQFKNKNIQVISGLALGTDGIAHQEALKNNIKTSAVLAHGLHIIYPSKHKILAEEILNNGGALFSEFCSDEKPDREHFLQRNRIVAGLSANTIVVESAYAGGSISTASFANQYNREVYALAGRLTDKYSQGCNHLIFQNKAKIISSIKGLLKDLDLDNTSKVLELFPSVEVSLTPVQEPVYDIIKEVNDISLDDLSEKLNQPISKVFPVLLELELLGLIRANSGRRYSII
# Test: EMSA; up to 20 uM DprA R123E; 25 mM HEPES pH 7.0, 150 mM NaCl, 10% glycerol, 1 mM DTT, 0.05% IGEPAL, 30 min at 30 C; 8% native PAGE in 0.5x TBE on ice
# Conditions: protein: recombinant, tags: C-terminal His6, chain copies: 2, label: biotin
binder,measurement,setting,value
TAGGCTCTGCTAAGGAAGCGTGGGGTCTGTCTAAGTTGGA (ssDNA) [RA-ssDNA1],binding result,,no binding
dsDNA annealed from RA-ssDNA1 (dsDNA) DNA 1: TAGGCTCTGCTAAGGAAGCGTGGGGTCTGTCTAAGTTGGA DNA 2: TCCAACTTAGACAGACCCCACGCTTCCTTAGCAGAGCCTA,binding result,blunt,no binding
AAAAACTACGGAACTGACTAAAGGCAGAAAAACTAAACGG (ssDNA) [RA-ssDNA2],binding result,,no binding
